Molecular target: the molecule itself
Assay: SEC

B1: Endonuclease MS from Thermococcus kodakarensis (TkoEndoMS), protein encoded by TK1898 (enzyme, UniProt Q5JER9 1-252, looked up)
chain: MSKDKVTVITSPSTEELVSLVNSALLEEAMLTIFARCKVHYDGRAKSELGSGDRVIIVKPDGSFLIHQSKKREPVNWQPPGSRVRLELRENPVLVSIRRKPRETLEVELEEVYMVSVFRAEDYEELALTGSEAEMAELIFENPEVIEPGFKPLFREKAIGTGIVDVLGRDSDGNIVVLELKRRRAELHAVRQLKSYVEILREEYGDKVRGILVAPSLTSGAKRLLEKEGLEFRKLEPPKRDSKKKGRQKTLF
stoichiometry N: 2
